Experimental data reported in patent publication US9580731B2, “Methods of producing 7-carbon chemicals via c1 carbon chain elongation associated with coenzyme B synthesis” (INVISTA North America S.á r.l., priority 2012, dated 2017).

Legend:
Format in all cases: biochemical
[1] = Thioesterase enzyme activity assay, pimeloyl-CoA to pimelate (release of CoA, Ellman's reagent); conditions: 667 μM pimeloyl-CoA, 0.8 μM enzyme, pH 7.4, 37° C., 20 min, relative to empty vector control, FIG. 8
Protocol: A sequence encoding an N-terminal His tag was added to the tesB gene from Escherichia coli that encodes a thioesterase (SEQ ID NO 1, see FIG. 7), such that an N-terminal HIS tagged thioesterase could be produced. The modified tesB gene was cloned into a pET15b expression vector under control of the T7 promoter. The expression vector was transformed into a BL21[DE3] E. coli host. The resulting recombinant E. coli strain was cultivated at 37° C. in a 500 mL shake flask culture containing 50 mL Luria Broth (LB) media and antibiotic selection pressure, with shaking at 230 rpm. The culture was induced overnight at 17° C. using 0.5 mM IPTG.
The pellet from the induced shake flask culture was harvested via centrifugation. The pellet was resuspended and lysed in Y-Per™ solution (ThermoScientific, Rockford, Ill.). The cell debris was separated from the supernatant via centrifugation. […]
The enzyme activity assay was performed in triplicate in a buffer composed of 50 mM phosphate buffer (pH=7.4), 0.1 mM Ellman's reagent, and 667 μM of pimeloyl-CoA (as substrate). […] The release of Coenzyme A was monitored by absorbance at 412 nm. The absorbance associated with the substrate only control, which contained boiled enzyme, was subtracted from the active enzyme assay absorbance and compared to the empty vector control.

[2] = Carboxylate reductase activity assay, pimelate to pimelate semialdehyde (NADPH consumption); conditions: 2 mM pimelate, enhanced by gene product of sfp, room temperature, 20 min, against empty vector control, FIG. 10
Protocol: A sequence encoding a HIS-tag was added to the genes from Segniliparus rugosus and Segniliparus rotundus that encode the carboxylate reductases of SEQ ID NOs: 4 and 7, respectively (see FIG. 7), such that N-terminal HIS tagged carboxylate reductases could be produced. Each of the modified genes was cloned into a pET Duet expression vector along with a sfp gene encoding a HIS-tagged phosphopantetheine transferase from Bacillus subtilis, both under the T7 promoter. Each expression vector was transformed into a BL21[DE3] E. coli host and the resulting recombinant E. coli strains were cultivated at 37° C. in a 250 mL shake flask culture containing 50 mL LB media and antibiotic selection pressure, with shaking at 230 rpm. Each culture was induced overnight at 37° C. using an auto-induction media.
The pellet from each induced shake flask culture was harvested via centrifugation. Each pellet was resuspended and lysed via sonication, and the cell debris was separated from the supernatant via centrifugation. […]
Enzyme activity assays (i.e., from pimelate to pimelate semialdehyde) were performed in triplicate in a buffer composed of a final concentration of 50 mM HEPES buffer (pH=7.5), 2 mM pimelate, 10 mM MgCl2, 1 mM ATP and 1 mM NADPH. […] The consumption of NADPH was monitored by absorbance at 340 nm.

[3] = Carboxylate reductase activity assay, N7-acetyl-7-aminoheptanoate to N7-acetyl-7-aminoheptanal (NADPH consumption); conditions: 2 mM N7-acetyl-7-aminoheptanoate, enhanced by gene product of sfp, room temperature, 20 min, against empty vector control, FIG. 12
Protocol: The activity of each of the N-terminal His-tagged carboxylate reductases of SEQ ID NOs: 3, 6, and 7 (see Examples 4, and FIG. 7) for converting N7-acetyl-7-aminoheptanoate to N7-acetyl-7-aminoheptanal was assayed in triplicate in a buffer composed of a final concentration of 50 mM HEPES buffer (pH=7.5), 2 mM N7-acetyl-7-aminoheptanoate, 10 mM MgCl2, 1 mM ATP, and 1 mM NADPH. The assays were initiated by adding purified carboxylate reductase and phosphopantetheine transferase or the empty vector control to the assay buffer containing the N7-acetyl-7-aminoheptanoate then incubated at room temperature for 20 min. The consumption of NADPH was monitored by absorbance at 340 nm.

B1: gene product of tesB: Escherichia coli thioesterase encoded by tesB, GenBank Accession No. AAA24665.1 (protein, listed as Escherichia coli)
chain: MSQALKNLLTLLNLEKIEEGLFRGQSEDLGLRQVFGGQVVGQALYAAKETVPEERLVHSFHSYFLRPGDSKKPIIYDVETLRDGNSFSARRVAAIQNGKPIFYMTASFQAPEAGFEHQKTMPSAPAPDGLPSETQIAQSLAHLLPPVLKDKFICDRPLEVRPVEFHNPLKGHVAEPHRQVWIRANGSVPDDLRVHQYLLGYASDLNFLPVALQPHGIGFLEPGIQIATIDHSMWFHRPFNLNEWLLYSVESTSASSARGFVRGEFYTQDGVLVASTVQEGVMRNHN
With B1 the “thioesterase activity for converting pimeloyl-CoA to pimelate (released CoA, absorbance at 412 nm)” value [1] was “accepted pimeloyl-CoA as substrate”.

B2: SEQ ID NO 4: Segniliparus rugosus carboxylate reductase, Genbank Accession No. EFV11917.1 (protein, listed as Segniliparus rugosus)
chain: MGDGEERAKRFFQRIGELSATDPQFAAAAPDPAVVEAVSDPSLSFTRYLDTLMRGYAERPALAHRVGAGYETISYGELWARVGAIAAAWQADGLAPGDFVATVGFTSPDYVAVDLAAARSGLVSVPLQAGASLAQLVGILEETEPKVLAASASSLEGAVACALAAPSVQRLVVFDLRGPDASESAADERRGALADAEEQLARAGRAVVVETLADLAARGEALPEAPLFEPAEGEDPLALLIYTSGSTGAPKGAMYSQRLVSQLWGRTPVVPGMPNISLHYMPLSHSYGRAVLAGALSAGGTAHFTANSDLSTLFEDIALARPTFLALVPRVCEMLFQESQRGQDVAELRERVLGGRLLVAVCGSAPLSPEMRAFMEEVLGFPLLDGYGSTEALGVMRNGIIQRPPVIDYKLVDVPELGYRTTDKPYPRGELCIRSTSLISGYYKRPEITAEVFDAQGYYKTGDVMAEIAPDHLVYVDRSKNVLKLSQGEFVAVAKLEAAYGTSPYVKQIFVYGNSERSFLLAVVVPNAEVLGARDQEEAKPLIAASLQKIAKEAGLQSYEVPRDFLIETEPFTTQNGLLSEVGKLLRPKLKARYGEALEARYDEIAHGQADELRALRDGAGQRPVVETVVRAAVAISGSEGAEVGPEANFADLGGDSLSALSLANLLHDVFEVEVPVRIIIGPTASLAGIAKHIEAERAGASAPTAASVHGAGATRIRASELTLEKFLPEDLLAAAKGLPAADQVRTVLLTGANGWLGRFLALEQLERLARSGQDGGKLICLVRGKDAAAARRRIEETLGTDPALAARFAELAEGRLEVVPGDVGEPKFGLDDAAWDRLAEEVDVIVHPAALVNHVLPYHQLFGPNVVGTAEIIRLAITAKRKPVTYLSTVAVAAGVEPSSFEEDGDIRAVVPERPLGDGYANGYGNSKWAGEVLLREAHELVGLPVAVFRSDMILAHTRYTGQLNVPDQFTRLVLSLLATGIAPKSFYQQGAAGERQRAHYDGIPVDFTAEAITTLGAEPSWFDGGAGFRSFDVFNPHHDGVGLDEFVDWLIEAGHPISRIDDHKEWFARFETAVRGLPEAQRQHSLLPLLRAYSFPHPPVDGSVYPTGKFQGAVKAAQVGSDHDVPHLGKALIVKYADDLKALGLL
With B2 the “carboxylate reductase activity for converting pimelate to pimelate semialdehyde (NADPH consumption, absorbance at 340 nm)” value [2] was “accepted pimelate as substrate”.

B3: SEQ ID NO 6: Mycobacterium massiliense carboxylate reductase, Genbank Accession No. EIV11143.1 (protein)
chain: MTNETNPQQEQLSRRIESLRESDPQFRAAQPDPAVAEQVLRPGLHLSEAIAALMTGYAERPALGERARELVIDQDGRTTLRLLPRFDTTTYGELWSRTTSVAAAWHHDATHPVKAGDLVATLGFTSIDYTVLDLAIMILGGVAVPLQTSAPASQWTTILAEAEPNTLAVSIELIGAAMESVRATPSIKQVVVFDYTPEVDDQREAFEAASTQLAGTGIALETLDAVIARGAALPAAPLYAPSAGDDPLALLIYTSGSTGAPKGAMHSENIVRRWWIREDVMAGTENLPMIGLNFMPMSHIMGRGTLTSTLSTGGTGYFAASSDMSTLFEDMELIRPTALALVPRVCDMVFQRFQTEVDRRLASGDTASAEAVAAEVKADIRDNLFGGRVSAVMVGSAPLSEELGEFIESCFELNLTDGYGSTEAGMVFRDGIVQRPPVIDYKLVDVPELGYFSTDKPHPRGELLLKTDGMFLGYYKRPEVTASVFDADGFYMTGDIVAELAHDNIEIIDRRNNVLKLSQGEFVAVATLEAEYANSPVVHQIYVYGSSERSYLLAVVVPTPEAVAAAKGDAAALKTTIADSLQDIAKEIQLQSYEVPRDFIIEPQPFTQGNGLLTGIAKLARPNLKAHYGPRLEQMYAEIAEQQAAELRALHGVDPDKPALETVLKAAQALLGVSSAELAADAHFTDLGGDSLSALSFSDLLRDIFAVEVPVGVIVSAANDLGGVAKFVDEQRHSGGTRPTAETVHGAGHTEIRAADLTLDKFIDEATLHAAPSLPKAAGIPHTVLLTGSNGYLGHYLALEWLERLDKTDGKLIVIVRGKNAEAAYGRLEEAFDTGDTELLAHFRSLADKHLEVLAGDIGDPNLGLDADTWQRLADTVDVIVHPAALVNHVLPYNQLFGPNVVGTAEIIKLAITTKIKPVTYLSTVAVAAYVDPTTFDEESDIRLISAVRPIDDGYANGYGNAKWAGEVLLREAHDLCGLPVAVFRSDMILAHSRYTGQLNVPDQFTRLILSLIATGIAPGSFYQAQTTGERPLAHYDGLPGDFTAEAITTLGTQVPEGSEGFVTYDCVNPHADGISLDNFVDWLIEAGYPIARIDNYTEWFTRFDTAIRGLSEKQKQHSLLPLLHAFEQPSAAENHGVVPAKRFQHAVQAAGIGPVGQDGTTDIPHLSRRLIVKYAKDLEQLGLL
modifications: Mycobacterium massiliense
In the case of B3, the “carboxylate reductase activity for converting N7-acetyl-7-aminoheptanoate to N7-acetyl-7-aminoheptanal (NADPH consumption, absorbance at 340 nm)” value [3] is reported as “accepted N7-acetyl-7-aminoheptanoate as substrate”.
